Test results: patent US20230416363A1 (KADMON, published 2023)
Substitutions are numbered along the chain they refer to.

B1: 33G8 (antibody, V domains shown)
VH: QVQLVQSGAEVKKPGSSVKVSCKASGGTFSSSVISWVRQAPGQGLEWMGGIIPIFGTANYAQKFQGRVTITADESTSTAYMELSSLRSEDTAVYYCAREGLGCSGGSCYSGYYYGMDVWGQGTTVTVSS
VL: DIVMTQSPLSLPVTPGEPASISCRSSQSLLHSNGYNYLDWYLQKPGQSPQLLIYQASTLGSGVPDRFSGSGSGTDFTLKISRVEAEDVGVYYCMQGTHWPYTFGQGTKLEIK
B2: 34C1 (antibody, V domains shown)
VH: B1 VH
VL: DIVMTQSPLSLPVTPGEPASISCRSSESLLYSNGNTYLDWYLQKPGQSPQLLIYEVSNRASGVPDRFSGSGSGTDFTLKISRVEAEDVGVYYCMQGTRWPYTFGQGTKVEIK
B3: 23A11 (antibody, human IgG1, V domains shown)
VH: QVQLVQSGAEVKKPGSSVKVSCKASGYTFTDYSLHWVRQAPGQGLEWMGEVIPMFDTAYYAQTFQGRVTITADESTSTAYMELSSLRSEDTAVYYCAREPFTMVRGGRYYYYGMDVWGQGTTVTVSS
VL: DIQMTQSPSSLSASVGDRVTITCRASQNINKNLNWYQQKPGKAPKLLIYDASNLQSGVPSRFSGSGSGTDFTLTISSLQPEDFATYYCQHSETFGQGTKVEIK
B4: 19B10 (antibody, human IgG1, V domains shown)
VH: EVQLLESGGGLVQPGGSLRLSCAASGFTFSSYAMHWVRQAPGKGLEWVSGISNSGGNTYYADSVKGRFTISRDNSKNTLYLQMNSLRAEDTAVYYCARDNYYYYMDVWGKGTTVTVSS
VL: DIQMTQSPSSLSASVGDRVTITCRASQSVSTWLAWYQQKPGKAPKLLIYAASNLETGVPSRFSGSGSGTDFTLTISSLQPEDFATYYCQQTYSTPYTFGQGTKLEIK
B5: 32A11 (antibody, V domains shown)
VH: EVQLLESGGGLVQPGGSLRLSCAASGFTFSSYWMSWVRQAPGKGLEWVSAISGSGGSTYYADSVKGRFTISRDNSKNTLYLQMNSLRAEDTAVYYCASSPLQWVDVWGQGTTVTVSS
VL: DIQMTQSPSSLSASVGDRVTITCRASESISIWLAWYQQKPGKAPKLLIYDASNLETGVPSRFSGSGSGTNFTLTISSLQPEDFATYYCQQADSFPFTFGPGTKVDIK
B6: 39B11 (antibody, V domains shown)
VH: B5 VH
VL: B5 VL with E27Q, I31S, D50E, N53R, E55Q, T56S, N70D, D92N
B7: 39B3 (antibody, V domains shown)
VH: B5 VH
VL: B5 VL with E27Q, S30G, I31P, N70D, D92N
B8: 32D2 (antibody, V domains shown)
VH: B5 VH
VL: B5 VL with E27Q, S28G, I31R, D50E, N53T, E55Q, T56S, N70D, D92Y, P100Q
B9: 38A11 (antibody, V domains shown)
VH: B5 VH
VL: B5 VL with E27Q, I31S, N53T, E55Q, T56S, N70D, A91G, D92N
B10: 32D11 (antibody, V domains shown)
VH: B5 VH
VL: B5 VL with E27Q, S30N, N70D, A91G, D92Y
B11: 38C11 (antibody, V domains shown)
VH: B5 VH
VL: B5 VL with E27Q, I31R, Y49S, N53T, L54V, E55Q, T56S, N70D, D92N
B12: 38A10 (antibody, V domains shown)
VH: B5 VH
VL: B5 VL with E27Q, I31T, N53R, E55Q, T56N, N70D, A91G
B13: 39G8 (antibody, V domains shown)
VH: B5 VH
VL: B5 VL with E27Q, S28G, I31P, N53K, N70D, D92Y, P100G, D105E

What follows are binders tested against T1, hPD-1-Fc (human, UniProt Q15116 25-167) (assay: ELISA, hPD1-Fc coated).
T1 construct: domain: IgV domain; also called human PD-1-Fc; not shown: human IgG1 Fc
T1 sequence (Q15116 25-167 limits assumed): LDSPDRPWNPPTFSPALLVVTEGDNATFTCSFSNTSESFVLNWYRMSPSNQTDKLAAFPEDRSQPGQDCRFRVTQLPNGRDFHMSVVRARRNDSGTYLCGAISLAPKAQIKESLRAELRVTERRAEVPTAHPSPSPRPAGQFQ
With B1 the EC50 was 0.113 nM and the “OD450 at 10 nM” value was 0.9 OD450.
For B2, the EC50 was 0.147 nM and the “OD450 at 10 nM” value was 0.926 OD450.

The binders below were run against T1, hPD-1-Fc (assay: ELISA, hPD-1-Fc coated).
With B3 the EC50 was 0.167 nM and the “OD at 10 nM” value was 2.04 OD450.
With B4 the EC50 was 0.188 nM and the “OD at 10 nM” value was 1.73 OD450.

Target: T1, hPD-1-Fc
Test: ELISA, hPD-1-Fc coated
Remark: another data set of the same source
In the case of B5, the “OD at 10 nM” value is reported as 0.921 OD.
B6 was tested, and the “OD at 10 nM” value was 1.08 OD.
B7 was tested, and the “OD at 10 nM” value was 1.08 OD.
In the case of B8, the “OD at 10 nM” value is reported as 0.922 OD.
For B9, the “OD at 10 nM” value was 1.03 OD.
With B10 the “OD at 10 nM” value was 0.952 OD.
For B11, the “OD at 10 nM” value was 1.02 OD.
With B12 the “OD at 10 nM” value was 1.06 OD.
B13 was tested, and the “OD at 10 nM” value was 1.06 OD.

Each binder was assayed against T2, hPD-1-his (human, UniProt Q15116 25-167) (assay: ELISA, captured hPD-1-his).
T2 construct: domain: IgV domain; monomer in solution; biotin-labelled where captured by streptavidin; also called biotin-hPD-1-his
T2 sequence (Q15116 other isoform, or with tags, fused parts or gaps limits assumed): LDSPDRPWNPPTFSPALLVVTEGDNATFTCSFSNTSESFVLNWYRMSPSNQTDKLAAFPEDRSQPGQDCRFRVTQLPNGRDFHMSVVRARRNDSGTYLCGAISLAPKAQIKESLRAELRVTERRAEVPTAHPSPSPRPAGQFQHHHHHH
With B3 the EC50 was 1 nM and the “OD at 10 nM” value was 0.27 OD450.
In the case of B4, the EC50 is reported as 5.34 nM and the “OD at 10 nM” value is reported as 0.38 OD450.

What follows are binders tested against T2, hPD-1-his (assay: ELISA, PD-1-his on anti-his).
In the case of B5, the “OD at 10 nM” value is reported as 1.03 OD.
B6 was tested, and the “OD at 10 nM” value was 0.482 OD.
With B7 the “OD at 10 nM” value was 0.617 OD.
In the case of B8, the “OD at 10 nM” value is reported as 0.591 OD.
B9 was tested, and the “OD at 10 nM” value was 0.447 OD.
With B10 the “OD at 10 nM” value was 0.602 OD.
In the case of B11, the “OD at 10 nM” value is reported as 0.404 OD.
In the case of B12, the “OD at 10 nM” value is reported as 0.552 OD.
In the case of B13, the “OD at 10 nM” value is reported as 0.484 OD.

What follows are binders tested against T2, hPD-1-his (assay: ELISA, hPD-1-his on anti-his).
In the case of B1, the EC50 is reported as 0.149 nM and the “OD450 at 10 nM” value is reported as 0.487 OD450.
With B2 the EC50 was 0.0866 nM and the “OD450 at 10 nM” value was 0.521 OD450.

The binders below were run against T3, human PD-1 expressed on cells (human, UniProt Q15116 25-288) (assay: flow cytometry, hPD1-293 cells).
T3 construct: whole, on cells
T3 sequence (Q15116 25-288): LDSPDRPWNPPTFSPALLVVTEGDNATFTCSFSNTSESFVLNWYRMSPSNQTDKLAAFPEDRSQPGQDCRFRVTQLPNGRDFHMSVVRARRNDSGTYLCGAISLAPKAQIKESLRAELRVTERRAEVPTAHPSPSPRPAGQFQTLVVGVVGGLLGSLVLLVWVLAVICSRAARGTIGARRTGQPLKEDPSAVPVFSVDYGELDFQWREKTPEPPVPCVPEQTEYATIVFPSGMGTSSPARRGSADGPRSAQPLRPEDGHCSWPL
In the case of B3, the “MFI at 68 nM” value is reported as 21.8 MFI.
In the case of B4, the EC50 is reported as 16 nM and the “MFI at 68 nM” value is reported as 45.1 MFI.

Each binder was assayed against T2, hPD-1-his (assay: ELISA, PD-1-his on streptavidin).
With B5 the “OD at 10 nM” value was 0.919 OD.
With B6 the “OD at 10 nM” value was 0.99 OD.
With B7 the “OD at 10 nM” value was 0.963 OD.
In the case of B8, the “OD at 10 nM” value is reported as 0.932 OD.
B9 was tested, and the “OD at 10 nM” value was 1.07 OD.
B10 was tested, and the “OD at 10 nM” value was 0.935 OD.
For B11, the “OD at 10 nM” value was 1.05 OD.
With B12 the “OD at 10 nM” value was 1 OD.
B13 was tested, and the “OD at 10 nM” value was 0.981 OD.

These binders were tested against T1, hPD-1-Fc (assay: blocking ELISA, hPD-1 to hPD-L1).
Design: unit not given here
For B5, the “Inhibition at 50 nM” value was 91.1.
With B6 the “Inhibition at 50 nM” value was 93.3.
B7 was tested, and the “Inhibition at 50 nM” value was 92.9.
For B8, the “Inhibition at 50 nM” value was 91.7.
B9 was tested, and the “Inhibition at 50 nM” value was 93.2.
In the case of B10, the “Inhibition at 50 nM” value is reported as 91.9.
With B11 the “Inhibition at 50 nM” value was 92.7.
In the case of B12, the “Inhibition at 50 nM” value is reported as 92.8.
For B13, the “Inhibition at 50 nM” value was 93.2.

The binders below were run against T1, hPD-1-Fc (assay: blocking ELISA, hPD-1-Fc to hPD-L1-Fc).
B3 was tested, and the IC50 was 2.61 nM, the “Inhibition % (3.3 nM)” value was 54.9% and the “Inhibition % (30 nM)” value was 86.6%.
For B4, the IC50 was 28.1 nM, the “Inhibition % (3.3 nM)” value was 22.9% and the “Inhibition % (30 nM)” value was 65.2%.

Target: T1, hPD-1-Fc
Test: blocking ELISA, hPD-1-Fc to hPD-L1-Fc
Remark: another data set of the same source
For B1, the IC50 was 1.81 nM, the “Inhibition % at 5.6 nM” value was 89.9% and the “Inhibition % at 50 nM” value was 90.5%.
For B2, the IC50 was 2.01 nM, the “Inhibition % at 5.6 nM” value was 89.1% and the “Inhibition % at 50 nM” value was 89.3%.

What follows are binders tested against T1, hPD-1-Fc (assay: SPR Biacore T200, PD-1-Fc immobilised).
B9 gave a Kd of 1.02 nM.
Binder B10 has a Kd of 0.554 nM.
Work on B12 yielded a Kd of 0.834 nM.
B13 gave a Kd of 0.794 nM.

Each binder was assayed against T2, hPD-1-his (assay: SPR Biacore T200, PD-1-his immobilised).
For B9, the Kd was 4.93 nM.
B10 gave a Kd of 1.44 nM.
For B12, the Kd was 4.82 nM.
Binder B13 has a Kd of 2.58 nM.

These binders were tested against T2, hPD-1-his (assay: ELISA, biotin-hPD-1-his on streptavidin).
B1 was tested, and the EC50 was 0.197 nM and the “OD450 at 10 nM” value was 0.909 OD450.
In the case of B2, the EC50 is reported as 0.233 nM and the “OD450 at 10 nM” value is reported as 0.945 OD450.

Each binder was assayed against T3, human PD-1 expressed on cells (assay: flow cytometry, SEB-activated PBMC donor three).
With B3 the EC50 was 13.4 nM and the “MFI at 100 nM” value was 46.2 MFI.
For B4, the EC50 was 104 nM and the “MFI at 100 nM” value was 25.2 MFI.

These binders were tested against T3, human PD-1 expressed on cells (assay: flow cytometry, SEB-activated PBMC donor one).
B3 was tested, and the EC50 was 19 nM and the “MFI at 100 nM” value was 14.6 MFI.
B4 was tested, and the EC50 was 117 nM and the “MFI at 100 nM” value was 12.4 MFI.
